The values below are quoted from earlier work in PMC6143667.

pKd: −log10 of the molar value.

This series addresses PKA catalytic subunit (UniProt P17612).

With “PKA regulatory subunit RII (from UniProt P31323)”, the pKd is 10.00.

Broadly, the pKd is the negative decadic logarithm of the Kd, by convention in mol/L.
